In experiment [1] the target is T1, human IL-23 (human, UniProt P29460 23-328; Q9NPF7 20-189).
T1 construct: Secreted from Sf9 cells for the crystal structure; One molecule is used for all three; also called Interleukin-23
T1 sequence (looked up) 1: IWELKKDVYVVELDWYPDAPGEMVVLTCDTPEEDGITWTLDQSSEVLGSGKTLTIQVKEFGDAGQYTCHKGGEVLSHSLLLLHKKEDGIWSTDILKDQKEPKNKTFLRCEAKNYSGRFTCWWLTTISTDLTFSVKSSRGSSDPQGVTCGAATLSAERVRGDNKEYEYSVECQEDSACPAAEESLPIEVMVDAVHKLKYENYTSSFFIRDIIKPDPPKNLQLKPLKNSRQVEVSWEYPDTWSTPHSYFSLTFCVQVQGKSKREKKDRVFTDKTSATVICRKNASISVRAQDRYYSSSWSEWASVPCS
T1 sequence (looked up) 2: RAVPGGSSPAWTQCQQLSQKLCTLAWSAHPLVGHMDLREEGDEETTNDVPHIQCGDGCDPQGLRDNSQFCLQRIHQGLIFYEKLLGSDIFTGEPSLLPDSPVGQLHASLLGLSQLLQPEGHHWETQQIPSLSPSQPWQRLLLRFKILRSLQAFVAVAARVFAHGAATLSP
Briefly: competition ELISA: Adnectin + 1 nM IL-23 on coated IL-23R-Fc.

Experiment [2] addresses T1, human IL-23. The experiment is described as follows: SPR (Biacore T100), immobilized human IL-23, single cycle kinetics. (Surface plasmon resonance follows binding to a sensor surface in real time, without labels.)
The target in experiment [3] is T1, human IL-23. Briefly: ratio of competition ELISA IC50, parent/mutant.

B1: Adnectin 2 (designed binder)
chain: MGVSDVPRDLEVVAATPTSLLISWEHDYPYRRYYRITYGETGGNSPVQEFTVPKDVDTATISGLKPGVDYTITVYAVTSSYKYDMQYSPISINYRTEIDKPSQHHHHHH
notes: also called anti-IL-23 Adnectin; ATI-000929
As a reminder, the IC50 is the concentration needed to halve the response being measured. As usually defined, the Kd is a measure of binding affinity in units of concentration. Higher therefore signals a looser complex. Consider B1, for which the IC50 with human IL-23 [1] was 1 nM. In the experiment with human IL-23 [2], this molecule came in with a Kd of 2 nM. Also, the “Activity (parent/mutant)” value with human IL-23 [3] is 1 ratio.

B2: Adnectin 2 V45→D (designed binder)
chain: MGVSDVPRDLEVVAATPTSLLISWEHDYPYRRYYRITYGETGGNSPDQEFTVPKDVDTATISGLKPGVDYTITVYAVTSSYKYDMQYSPISINYRTEIDKPSQHHHHHH
As to B2, the IC50 with human IL-23 [1] came out at 0.83 nM. In addition, the “Activity (parent/mutant)” value with human IL-23 [3] amounted to 1.2 ratio.

B3: Adnectin 2 T35→Q (designed binder)
chain: MGVSDVPRDLEVVAATPTSLLISWEHDYPYRRYYRIQYGETGGNSPVQEFTVPKDVDTATISGLKPGVDYTITVYAVTSSYKYDMQYSPISINYRTEIDKPSQHHHHHH
For B3, the IC50 with human IL-23 [1] worked out at 1 nM. For the same molecule, in the experiment with human IL-23 [3], the “Activity (parent/mutant)” value was 1 ratio.

B4: Adnectin 2 P87→A (designed binder)
chain: MGVSDVPRDLEVVAATPTSLLISWEHDYPYRRYYRITYGETGGNSPVQEFTVPKDVDTATISGLKPGVDYTITVYAVTSSYKYDMQYSAISINYRTEIDKPSQHHHHHH
On to B4, for which the IC50 with human IL-23 [1] stood at 8.3 nM. Further, the “Activity (parent/mutant)” value with human IL-23 [3] worked out at 0.1 ratio.

B5: Adnectin 2 Y73→N (designed binder)
chain: MGVSDVPRDLEVVAATPTSLLISWEHDYPYRRYYRITYGETGGNSPVQEFTVPKDVDTATISGLKPGVDYTITVNAVTSSYKYDMQYSPISINYRTEIDKPSQHHHHHH
With B5, the IC50 in the experiment with human IL-23 [1] is 1.2 nM. Moreover, the “Activity (parent/mutant)” value in the experiment with human IL-23 [3] turned out to be 0.8 ratio.

B6: Adnectin 2 V75→Y (designed binder)
chain: MGVSDVPRDLEVVAATPTSLLISWEHDYPYRRYYRITYGETGGNSPVQEFTVPKDVDTATISGLKPGVDYTITVYAYTSSYKYDMQYSPISINYRTEIDKPSQHHHHHH
On to B6, for which the IC50 with human IL-23 [1] was determined as 2.2 nM. Further, in the experiment with human IL-23 [3], the “Activity (parent/mutant)” value amounted to 0.4 ratio.

B7: Adnectin 2 Y73→Q (designed binder)
chain: MGVSDVPRDLEVVAATPTSLLISWEHDYPYRRYYRITYGETGGNSPVQEFTVPKDVDTATISGLKPGVDYTITVQAVTSSYKYDMQYSPISINYRTEIDKPSQHHHHHH
For B7, the IC50 in the experiment with human IL-23 [1] is 0.26 nM. Besides, the “Activity (parent/mutant)” value with human IL-23 [3] was 3.8 ratio.

B8: Adnectin 2 T35→E (designed binder)
chain: MGVSDVPRDLEVVAATPTSLLISWEHDYPYRRYYRIEYGETGGNSPVQEFTVPKDVDTATISGLKPGVDYTITVYAVTSSYKYDMQYSPISINYRTEIDKPSQHHHHHH
As for B8, in the experiment with human IL-23 [1], the IC50 amounted to 0.6 nM. Further, the “Activity (parent/mutant)” value with human IL-23 [3] stood at 1.7 ratio.

B9: Adnectin 2 Y81→A (designed binder)
chain: MGVSDVPRDLEVVAATPTSLLISWEHDYPYRRYYRITYGETGGNSPVQEFTVPKDVDTATISGLKPGVDYTITVYAVTSSYKADMQYSPISINYRTEIDKPSQHHHHHH
On to B9, for which the IC50 with human IL-23 [1] amounted to 35 nM. Besides, the “Activity (parent/mutant)” value with human IL-23 [3] amounted to 0.03 ratio.

B10: Adnectin 2 V45→Q (designed binder)
chain: MGVSDVPRDLEVVAATPTSLLISWEHDYPYRRYYRITYGETGGNSPQQEFTVPKDVDTATISGLKPGVDYTITVYAVTSSYKYDMQYSPISINYRTEIDKPSQHHHHHH
With B10, the IC50 with human IL-23 [1] came out at 0.34 nM. Further, in the experiment with human IL-23 [3], the “Activity (parent/mutant)” value was determined as 2.9 ratio.

B11: Adnectin 2 T35→N (designed binder)
chain: MGVSDVPRDLEVVAATPTSLLISWEHDYPYRRYYRINYGETGGNSPVQEFTVPKDVDTATISGLKPGVDYTITVYAVTSSYKYDMQYSPISINYRTEIDKPSQHHHHHH
As for B11, in the experiment with human IL-23 [1], the IC50 is 1.7 nM. Also, in the experiment with human IL-23 [3], the “Activity (parent/mutant)” value worked out at 0.6 ratio.

B12: Adnectin 2 Y73→R (designed binder)
chain: MGVSDVPRDLEVVAATPTSLLISWEHDYPYRRYYRITYGETGGNSPVQEFTVPKDVDTATISGLKPGVDYTITVRAVTSSYKYDMQYSPISINYRTEIDKPSQHHHHHH
In the case of B12, the IC50 in the experiment with human IL-23 [1] was found to be 1.2 nM. The “Activity (parent/mutant)” value with human IL-23 [3] came to 0.8 ratio.

B13: Adnectin 2 V75→Q (designed binder)
chain: MGVSDVPRDLEVVAATPTSLLISWEHDYPYRRYYRITYGETGGNSPVQEFTVPKDVDTATISGLKPGVDYTITVYAQTSSYKYDMQYSPISINYRTEIDKPSQHHHHHH
As for B13, the IC50 in the experiment with human IL-23 [1] was found to be 2.3 nM. Also, the “Activity (parent/mutant)” value with human IL-23 [3] was 0.4 ratio.

B14: Adnectin 2 T35→D (designed binder)
chain: MGVSDVPRDLEVVAATPTSLLISWEHDYPYRRYYRIDYGETGGNSPVQEFTVPKDVDTATISGLKPGVDYTITVYAVTSSYKYDMQYSPISINYRTEIDKPSQHHHHHH
In the case of B14, the IC50 with human IL-23 [1] was 49 nM. The “Activity (parent/mutant)” value with human IL-23 [3] was 0.02 ratio.

B15: Adnectin 2 V75→K (designed binder)
chain: MGVSDVPRDLEVVAATPTSLLISWEHDYPYRRYYRITYGETGGNSPVQEFTVPKDVDTATISGLKPGVDYTITVYAKTSSYKYDMQYSPISINYRTEIDKPSQHHHHHH
As for B15, the IC50 with human IL-23 [1] worked out at 5.7 nM. Further, the “Activity (parent/mutant)” value with human IL-23 [3] turned out to be 0.2 ratio.

B16: Adnectin 2 V45→N (designed binder)
chain: MGVSDVPRDLEVVAATPTSLLISWEHDYPYRRYYRITYGETGGNSPNQEFTVPKDVDTATISGLKPGVDYTITVYAVTSSYKYDMQYSPISINYRTEIDKPSQHHHHHH
On to B16, for which the IC50 in the experiment with human IL-23 [1] turned out to be 0.54 nM. In addition, in the experiment with human IL-23 [3], the “Activity (parent/mutant)” value was 1.8 ratio.

B17: Adnectin 2 Y28→A (designed binder)
chain: MGVSDVPRDLEVVAATPTSLLISWEHDYPARRYYRITYGETGGNSPVQEFTVPKDVDTATISGLKPGVDYTITVYAVTSSYKYDMQYSPISINYRTEIDKPSQHHHHHH
For B17, the IC50 in the experiment with human IL-23 [1] turned out to be 13 nM. Further, the “Activity (parent/mutant)” value with human IL-23 [3] worked out at 0.08 ratio.

B18: Adnectin 2 Y73→A (designed binder)
chain: MGVSDVPRDLEVVAATPTSLLISWEHDYPYRRYYRITYGETGGNSPVQEFTVPKDVDTATISGLKPGVDYTITVAAVTSSYKYDMQYSPISINYRTEIDKPSQHHHHHH
Turning to B18, in the experiment with human IL-23 [1], the IC50 was 0.65 nM. Also, the “Activity (parent/mutant)” value with human IL-23 [3] was determined as 1.5 ratio.

B19: Adnectin 2 V45→E (designed binder)
chain: MGVSDVPRDLEVVAATPTSLLISWEHDYPYRRYYRITYGETGGNSPEQEFTVPKDVDTATISGLKPGVDYTITVYAVTSSYKYDMQYSPISINYRTEIDKPSQHHHHHH
B19: the IC50 with human IL-23 [1] is 0.51 nM. The “Activity (parent/mutant)” value with human IL-23 [3] amounted to 1.9 ratio.

These data come from patent US20210070840A1 (Bristol-Myers Squibb, published 2021).
